T1: recombinant Lectin-Olfactomedin-like domains of human LPHN1 (human, UniProt O94910 25-398, limits assumed)
T1 construct: domain: Lectin-Olfactomedin-like domains; also called Lec/Olf domains of LPHN1; Lec-Olf domains of LPHN1
T1 sequence (looked up): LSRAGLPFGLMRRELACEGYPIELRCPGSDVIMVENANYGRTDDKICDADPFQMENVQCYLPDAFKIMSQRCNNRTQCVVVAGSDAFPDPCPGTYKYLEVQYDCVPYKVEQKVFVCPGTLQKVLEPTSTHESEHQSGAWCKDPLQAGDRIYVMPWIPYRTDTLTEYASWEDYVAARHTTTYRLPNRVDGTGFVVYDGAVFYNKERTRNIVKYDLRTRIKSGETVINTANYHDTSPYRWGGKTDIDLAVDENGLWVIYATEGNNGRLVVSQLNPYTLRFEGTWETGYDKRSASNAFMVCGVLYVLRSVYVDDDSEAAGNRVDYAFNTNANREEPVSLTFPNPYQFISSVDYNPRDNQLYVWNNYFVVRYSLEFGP

T2: recombinant Lectin-Olfactomedin-like domains of human LPHN3 (human, UniProt Q9HAR2 20-393, limits assumed)
T2 construct: domain: Lectin-Olfactomedin-like domains; also called Lec/Olf domains of LPHN3; Lec-Olf domains of LPHN3
T2 sequence (looked up): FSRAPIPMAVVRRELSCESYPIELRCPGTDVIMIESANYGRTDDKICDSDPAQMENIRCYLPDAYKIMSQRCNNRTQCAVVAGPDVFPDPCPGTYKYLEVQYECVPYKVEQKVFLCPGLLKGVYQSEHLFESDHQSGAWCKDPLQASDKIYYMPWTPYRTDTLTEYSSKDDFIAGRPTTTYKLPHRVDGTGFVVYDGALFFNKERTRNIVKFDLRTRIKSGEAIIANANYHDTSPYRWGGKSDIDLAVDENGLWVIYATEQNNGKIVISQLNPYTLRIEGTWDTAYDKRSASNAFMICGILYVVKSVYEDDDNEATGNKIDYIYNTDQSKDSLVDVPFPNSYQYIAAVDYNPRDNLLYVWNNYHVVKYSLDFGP

T3: recombinant human LPHN2 lectin-olfactomedin-like domain, residues F26-P394 (human, UniProt O95490 26-394)
T3 construct: range 26-394; Coated on the plate at 100 nM; also called LPHN2 Lec/Olf domains; Lec-Olf domain
T3 sequence (looked up): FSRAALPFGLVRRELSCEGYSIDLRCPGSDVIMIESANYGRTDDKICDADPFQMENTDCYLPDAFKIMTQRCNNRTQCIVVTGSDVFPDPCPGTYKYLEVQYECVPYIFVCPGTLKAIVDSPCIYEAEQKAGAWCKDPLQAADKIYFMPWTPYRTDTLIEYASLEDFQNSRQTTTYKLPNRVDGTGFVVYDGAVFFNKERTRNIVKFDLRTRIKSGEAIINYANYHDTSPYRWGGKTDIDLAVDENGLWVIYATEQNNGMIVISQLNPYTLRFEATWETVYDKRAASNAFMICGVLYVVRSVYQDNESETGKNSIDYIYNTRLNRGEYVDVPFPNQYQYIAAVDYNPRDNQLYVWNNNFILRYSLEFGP

B1: recombinant human LRG1 (leucine-rich alpha-2 glycoprotein 1), residues V36-Q347, untagged, glycosylated (ligand)
chain: VTLSPKDCQVFRSDHGSSISCQPPAEIPGYLPADTVHLAVEFFNLTHLPANLLQGASKLQELHLSSNGLESLSPEFLRPVPQLRVLDLTRNALTGLPPGLFQASATLDTLVLKENQLEVLEVSWLHGLKALGHLDLSGNRLRKLPPGLLANFTLLRTLDLGENQLETLPPDLLRGPLQLERLHLEGNKLQVLGKDLLLPQPDLRYLFLNGNKLARVAAGAFQGLRQLDMLDLSNNSLASVPEGLWASLGQPNWDMRDGFDISGNPWICDQNLSDLYRWLQAQKDKMFSQNDTRCAGPEAVKGQTLLAVAKSQ
modifications: glycosyl groups at T37 (O-linked), N79, N186, N269 and N325 (N-linked), numbered on SEQ ID NO: 1
notes: also called wild-type LRG1; wild LRG1

Columns and labels:
[1] = molecular target: T1, recombinant Lectin-Olfactomedin-like …; assay: solid-phase binding assay (ELISA), plate coated with 100 nM Lec-Olf domain
Protocol: (§1) FIG. 8E: results of solid phase binding assay to evaluate binding of wild-type LRG1 and DG-LRG1 to the Lec-Olf domains of LPHN1 and LPHN3. The plates were coated with Lec-Olf domains (100 nM) of LPHN1 and LPHN3. After washing and blocking, different amounts (0.001, 0.005, 0.01, 0.05, 0.1, 0.5, 1, 5 and 10 μM) of wild-type LRG1 or DG-LRG1 were added and LRG1 or DG-LRG1 bound to coated proteins were detected by ELISA using anti-LRG1 antibody and anti-mouse secondary antibody.

[2] = molecular target: T2, recombinant Lectin-Olfactomedin-like …; assay: as above
Protocol: as §1

[3] = molecular target: T3, recombinant human LPHN2 …; assay: solid-phase binding assay (ELISA), plate coated with LPHN2 Lec/Olf domains
Protocol: (§2) Solid phase binding analysis was performed by a known method (Mol Cancer Ther 14, 470-479 (2015)). LPHN2 extracellular domain variants (Lec, Olf, GAIN/GPS domain; 100 nM) were added to MaxiSorp 96-well plates (Nunc) and incubated at room temperature for 1 hour. The wells were washed twice with PBS and then incubated with 1% bovine serum albumen (BSA) for 2 hours. After blocking, various amounts (0.001, 0.005, 0.01, 0.05, 0.1, 0.5, 1, 5 or 10 μM) of wild-type LRG1 or DG-LRG1 were added to 96-well plates coated with the indicated LPHN2 extracellular domain variants. LRG1 bound to the coated protein was detected by ELISA using an anti-LRG1 antibody (Cat #sc517443, Santa Cruz) and a peroxidase-conjugated anti-mouse secondary antibody (Cat #62-6520, Thermo Fisher Scientific).
Whether or not deglycosylation of LRG1 (DG-LRG1) affects the binding affinity to LPHN2 in vitro (FIG. 7B) and ex vivo (FIGS. 7C and 8C) was determined. […] Cell surface binding rates of LRG1 and DG-LRG1 in HUVEC and HEK293T cells were evaluated and verified again (Table 3, FIGS. 7C and 8C)

[4] = molecular target: B1; assay: solid-phase binding assay (ELISA), plate coated with LPHN2 ectodomain variants
Protocol: as §2

Kd [3] [µM]	binding result [4]	Binder	binding result [1]	binding result [2]
0.92		B1	no binding (tested: 0.001 to 10 µM added)	no binding (tested: 0.001 to 10 µM added)
0.45		deglycosylated LRG1 (LRG1 treated with PNGase F) (ligand, N-linked glycans removed with PNGase F (sites N79, N186, N269, N325 on SEQ ID NO: 1), For FACS it was conjugated with Alexa 647; also called DG-LRG1; deglycosylated form) VTLSPKDCQVFRSDHGSSISCQPPAEIPGYLPADTVHLAVEFFNLTHLPANLLQGASKLQELHLSSNGLESLSPEFLRPVPQLRVLDLTRNALTGLPPGLFQASATLDTLVLKENQLEVLEVSWLHGLKALGHLDLSGNRLRKLPPGLLANFTLLRTLDLGENQLETLPPDLLRGPLQLERLHLEGNKLQVLGKDLLLPQPDLRYLFLNGNKLARVAAGAFQGLRQLDMLDLSNNSLASVPEGLWASLGQPNWDMRDGFDISGNPWICDQNLSDLYRWLQAQKDKMFSQNDTRCAGPEAVKGQTLLAVAKSQ	no binding (tested: 0.001 to 10 µM added)	no binding (tested: 0.001 to 10 µM added)
	binds	recombinant human LPHN2 olfactomedin-like domain, residues V135-P394 (receptor, UniProt O95490 135-394, looked up, range 135-394; Expressed with an Fc tag and released untagged with thrombin; also called Olf domain of LPHN2) VCPGTLKAIVDSPCIYEAEQKAGAWCKDPLQAADKIYFMPWTPYRTDTLIEYASLEDFQNSRQTTTYKLPNRVDGTGFVVYDGAVFFNKERTRNIVKFDLRTRIKSGEAIINYANYHDTSPYRWGGKTDIDLAVDENGLWVIYATEQNNGMIVISQLNPYTLRFEATWETVYDKRAASNAFMICGVLYVVRSVYQDNESETGKNSIDYIYNTRLNRGEYVDVPFPNQYQYIAAVDYNPRDNQLYVWNNNFILRYSLEFGP		
